# B1: STX5 (parent)
# chain: ESTIVELGSIFQQLAHMVKEQEET
# Variants of: B1
# Experiment: protein stability index of a GFP-peptide fusion (GPS, HEK-293T) (PSI 1-6); higher = more stable
# Conditions: c terminus: a fixed tail appended
# 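Note: lentivirally expressed fusions sorted by FACS into six bins by GFP to DsRed ratio, PSI derived from sequencing read proportions per bin multiplied by bin number.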
row,Variant,protein stability index
1,ESTIVELGSIFQQLAHMVAEQEET,1.81
2,ESTIVELGSIFQQLAHMVNEQEET,2.95
3,ESTIVELGSIFQQLAHMVQEQEET,2.32
4,ESTIVELGSIFQQLAHMVSEQEET,1.97
5,ESTIVELGSIFQQLAHMVFEQEET,2.31
6,ESTIVELGSIFQQLAHMVTEQEET,2.41
7,ESTIVELGSIFQQLAHMVYEQEET,1.17
8,ESTIVELGSIFQQLAHMVEEQEET,2.92
9,ESTIVELGSIFQQLAHMVHEQEET,2.44
10,ESTIVELGSIFQQLAHMVIEQEET,1.59
11,ESTMVELGSIFQQLAHMVKEQEET,1.57
12,ESTLVELGSIFQQLAHMVKEQEET,1.81
13,ESTAVELGSIFQQLAHMVKEQEET,2.27
14,ESTHVELGSIFQQLAHMVKEQEET,3.14
15,ESTKVELGSIFQQLAHMVKEQEET,2.55
16,ESTTVELGSIFQQLAHMVKEQEET,2.73
17,ESTDVELGSIFQQLAHMVKEQEET,2.78
18,EETIVELGSIFQQLAHMVKEQEET,2.62
19,EITIVELGSIFQQLAHMVKEQEET,1.86
20,EDTIVELGSIFQQLAHMVKEQEET,2.47
21,EATIVELGSIFQQLAHMVKEQEET,1.39
22,EFTIVELGSIFQQLAHMVKEQEET,2.93
23,EVTIVELGSIFQQLAHMVKEQEET,3.07
24,EGTIVELGSIFQQLAHMVKEQEET,1.78

row,Variant,protein stability index
1,ESTIVELGSIFQQLAHMVKEQMET,2.89
2,ESTIVELGSIFQQLAHMVKEQIET,2.7
3,ESTIVELGSIFQQLAHMVKEQSET,2.44
4,ESTIVELGSIFQQLAHMVKEQCET,2.4
5,ESTIVELGSIFQQLAHMVKEQHET,1.3
6,ESTIVELGSIFQQLAHMVKEQQET,2.65
7,ESTIVELGSIFQQLAHMVKEQKET,2
8,ESTIVELGSIFQQLAHMVKEQNET,1.98
9,ESTIVELGSIFQQLAHMGKEQEET,4.6
10,ESTIVELGSIFQQLAHMLKEQEET,1.8
11,ESTIVELGSIFQQLAHMQKEQEET,2.37
12,ESTIVELGSIFQQLAHMAKEQEET,3.27
13,ESTIVELGSIFQQLAHMYKEQEET,2.44
14,ESTIVELGSIFQQLAHMNKEQEET,4.38
15,ESTIVELGSIFQQLAHMIKEQEET,2.41
16,ESTIVELGSIFQQLAHMEKEQEET,4.64
17,ESTIVELGSIFQQLAHMVKEKEET,2.6
18,ESTIVELGSIFQQLAHMVKESEET,1.81
19,ESTIVELGSIFQQLAHMVKECEET,1.91
20,ESTIVELGSIFQQLAHMVKEEEET,3.05
21,ESTIVELGSIFQQLAHMVKETEET,2.88
22,ESTIVELGSIFQQLAHMVKEIEET,1.64
23,ESTIVELGSIFQQLAHMVKEVEET,1.73
24,ESTIVELGSIFQQLAHMVKEDEET,2.4

row,Variant,protein stability index
1,ESTIVELGSIFQQLAHMVKEGEET,2.75
2,ESTIRELGSIFQQLAHMVKEQEET,2.88
3,ESTIEELGSIFQQLAHMVKEQEET,2.12
4,ESTIIELGSIFQQLAHMVKEQEET,2.55
5,ESTIMELGSIFQQLAHMVKEQEET,2.56
6,ESTIHELGSIFQQLAHMVKEQEET,1.71
7,ESTILELGSIFQQLAHMVKEQEET,2.04
8,ESTINELGSIFQQLAHMVKEQEET,2.04
9,ESTIPELGSIFQQLAHMVKEQEET,3.5
10,ESTIDELGSIFQQLAHMVKEQEET,3
11,ESTISELGSIFQQLAHMVKEQEET,2.46
12,ESTIVELGSIFQQLAHIVKEQEET,2.3
13,ESTIVELGSIFQQLAHNVKEQEET,4.16
14,ESTIVELGSIFQQLAHDVKEQEET,4.11
15,ESTIVELGSIFQQLAHAVKEQEET,2.83
16,ESTIVELGSIFQQLAHLVKEQEET,1.7
17,ESTIVELGSIFQQLAHCVKEQEET,3.6
18,ISTIVELGSIFQQLAHMVKEQEET,3.04
19,QSTIVELGSIFQQLAHMVKEQEET,1.68
20,MSTIVELGSIFQQLAHMVKEQEET,2.45
21,NSTIVELGSIFQQLAHMVKEQEET,2.22
22,ESTIVELGSIFQQLAHMVKEQEEF,1.6
23,ESTIVELGSIFQQLAHMVKEQEEC,1.62
24,ESTIVELGSIFQQLAHMVKEQEES,2

row,Variant,protein stability index
1,ESTIVELGSIFQQLAHMVKEQEEQ,1.59
2,ESTIVELGSIFQQLAHMVKEQEEV,2.01
3,ESTIVELGSIFQQLAHMVKEQEEP,2.77
4,ESTIVELGSISQQLAHMVKEQEET,4.27
5,ESTIVELGSIVQQLAHMVKEQEET,3.19
6,ESTIVELGSIRQQLAHMVKEQEET,4.92
7,ESTIVELGSIQQQLAHMVKEQEET,3.48
8,ESTIVELGSIIQQLAHMVKEQEET,2.27
9,ESTIVELGSIDQQLAHMVKEQEET,5.77
10,ESTIVELGSIGQQLAHMVKEQEET,5.35
11,ESTIVELGSIAQQLAHMVKEQEET,3.83
12,ESTIVELGSILQQLAHMVKEQEET,2.8
13,ESTIVELGSIKQQLAHMVKEQEET,4.85
14,ESTIVELGSITQQLAHMVKEQEET,4.81
15,ESTIVYLGSIFQQLAHMVKEQEET,1.81
16,ESTIVQLGSIFQQLAHMVKEQEET,2.33
17,ESTIVHLGSIFQQLAHMVKEQEET,2.33
18,ESTIVRLGSIFQQLAHMVKEQEET,4.41
19,ESTIVVLGSIFQQLAHMVKEQEET,1.62
20,ESTIVNLGSIFQQLAHMVKEQEET,3.14
21,ESTIVELGSIFQWLAHMVKEQEET,1.88
22,ESTIVELGSIFQPLAHMVKEQEET,4.54
23,ESTIVELGSIFQLLAHMVKEQEET,1.54
24,ESTIVELGSIFQVLAHMVKEQEET,2.16

row,Variant,protein stability index
1,ESTIVELGSIFQTLAHMVKEQEET,3.28
2,ESTIVELGSIFQALAHMVKEQEET,2.4
3,ESTIVELGSIFQKLAHMVKEQEET,2.8
4,ESEIVELGSIFQQLAHMVKEQEET,1.43
5,ESAIVELGSIFQQLAHMVKEQEET,2.96
6,ESVIVELGSIFQQLAHMVKEQEET,2.56
7,ESMIVELGSIFQQLAHMVKEQEET,1.44
8,ESLIVELGSIFQQLAHMVKEQEET,1.85
9,ESYIVELGSIFQQLAHMVKEQEET,2.05
10,ESRIVELGSIFQQLAHMVKEQEET,3.19
11,ESTIVELGSIFQQLAHMVKEQEPT,2.06
12,ESTIVELGSIFQQLAHMVKEQECT,1.83
13,ESTIVELGSIFQQLAHMVKEQEHT,2.11
14,ESTIVELGSIFQQLAHMVKEQEGT,1.28
15,ESTIVELGSIFQQLAHMVKEQEDT,2.19
16,ESTIVELGSIFQQLAHMVKEQETT,1.32
17,ESTIVELGSIFQQLAHMVKEQEST,1.23
18,ESTIVELGSIFQQLAHMVKEQEAT,1.88
19,ESTIVELGSIFQQWAHMVKEQEET,3.17
20,ESTIVELGSIFQQDAHMVKEQEET,5.05
21,ESTIVELGSIFQQCAHMVKEQEET,4.42
22,ESTIVELGSIFQQAAHMVKEQEET,4.31
23,ESTIVELGSIFQQGAHMVKEQEET,4.64
24,ESTIVELGSIFQQNAHMVKEQEET,5.24

row,Variant,protein stability index
1,ESTIVELGSIFQQFAHMVKEQEET,1.69
2,ESTIVELGSIFQQKAHMVKEQEET,5.2
3,ESTIVELGSIFQQIAHMVKEQEET,2.09
4,ESTIVELGSIFQQVAHMVKEQEET,2.81
5,ESTIVELGSIFQQQAHMVKEQEET,4.75
6,ESTIVELGSIFQQMAHMVKEQEET,3.77
7,ESTIVELGSIFQQSAHMVKEQEET,5.26
8,ESTIVELGSIFQQLAIMVKEQEET,1.88
9,ESTIVELGSIFQQLASMVKEQEET,2.36
10,ESTIVELGSIFQQLAMMVKEQEET,3
11,ESTIVELGSIFQQLAVMVKEQEET,2.43
12,ESTIVELGSIFQQLARMVKEQEET,1.79
13,ESTIVELGSIFQQLAFMVKEQEET,2.02
14,ESTIVELGSIFQQLAEMVKEQEET,1.96
15,ESTIVELGSIFQQLALMVKEQEET,2.75
16,ESTIVELGSIFQQLAGMVKEQEET,2.13
17,ESTIVELGSIFPQLAHMVKEQEET,4.39
18,ESTIVELGSIFVQLAHMVKEQEET,2.07
19,ESTIVELGSIFFQLAHMVKEQEET,2.26
20,ESTIVELGSIFCQLAHMVKEQEET,1.7
21,ESTIVELGSIFSQLAHMVKEQEET,2.1
22,ESTIVELGSIFKQLAHMVKEQEET,1.79
23,ESTIVELGSIFRQLAHMVKEQEET,2.4
24,ESTIVELGSIFYQLAHMVKEQEET,2.17

row,Variant,protein stability index
1,ESTIVELGSIFDQLAHMVKEQEET,3.34
2,ESTIVELGSIFNQLAHMVKEQEET,2.99
3,ESTIVELGSIFIQLAHMVKEQEET,2.26
4,ESTIVELGSIFLQLAHMVKEQEET,3.46
5,ESTIVELGSIFQQLVHMVKEQEET,2.24
6,ESTIVELGSIFQQLFHMVKEQEET,2.09
7,ESTIVELGSIFQQLWHMVKEQEET,2.18
8,ESTIVELGSIFQQLKHMVKEQEET,3.1
9,ESTIVELGSIFQQLNHMVKEQEET,3.67
10,ESTIVELGSIFQQLSHMVKEQEET,2.99
11,ESTIVELGSIFQQLLHMVKEQEET,1.76
12,ESTIVELGSIFQQLTHMVKEQEET,3.66
13,ESTIVETGSIFQQLAHMVKEQEET,4.5
14,ESTIVENGSIFQQLAHMVKEQEET,4.96
15,ESTIVEGGSIFQQLAHMVKEQEET,5.65
16,ESTIVESGSIFQQLAHMVKEQEET,5.42
17,ESTIVEHGSIFQQLAHMVKEQEET,4.9
18,ESTIVEPGSIFQQLAHMVKEQEET,4.75
19,ESTIVELGTIFQQLAHMVKEQEET,2.11
20,ESTIVELGDIFQQLAHMVKEQEET,2.55
21,ESTIVELGEIFQQLAHMVKEQEET,2.08
22,ESTIVELGNIFQQLAHMVKEQEET,2.26
23,ESTIVELGKIFQQLAHMVKEQEET,2.34
24,ESTIVELGMIFQQLAHMVKEQEET,1.87

row,Variant,protein stability index
1,ESTIVELGGIFQQLAHMVKEQEET,3.22
2,ESTIVELGIIFQQLAHMVKEQEET,1.32
3,ESTIVELISIFQQLAHMVKEQEET,2.24
4,ESTIVELNSIFQQLAHMVKEQEET,2.44
5,ESTIVELKSIFQQLAHMVKEQEET,1.94
6,ESTIVELHSIFQQLAHMVKEQEET,2.48
7,ESTIVELLSIFQQLAHMVKEQEET,1.85
8,ESTIVELGSIFQQLAHMVKKQEET,2.86
9,ESTIVELGSIFQQLAHMVKGQEET,2.02
10,ESTIVELGSIFQQLAHMVKSQEET,2.08
11,ESTIVELGSIFQQLAHMVKTQEET,1.18
12,ESTIVELGSIFQQLAHMVKWQEET,1.86
13,ESTIVELGSRFQQLAHMVKEQEET,3.9
14,ESTIVELGSEFQQLAHMVKEQEET,5.46
15,ESTIVELGSWFQQLAHMVKEQEET,2.58
16,ESTIVELGSTFQQLAHMVKEQEET,4.49
17,ESTIVELGSKFQQLAHMVKEQEET,3.69
18,ESTIVELGSHFQQLAHMVKEQEET,4.5
19,ESTIVELGSVFQQLAHMVKEQEET,3.1
20,ESTIVELGSNFQQLAHMVKEQEET,5.07

# Reference: the supplement of paper PMC10567573
